Measurements published in US20200332017A1.
Values joined by “and” are separate entries in the source; they are usually repeats but may differ in a detail not shown here. Identical values can stand only once. Like-named read-outs stand apart in the source and are kept apart here.

How the values were obtained:
[1] = target: full length human CD40 (uniprot # P25942-1) on the membrane of 293T-CD40 cells (human) (UniProt P25942); assay: flow cytometry on 293T-CD40 cells
[2] = target: human CD40-Fc protein (amino acid residue 21-193 of SEQ ID NO: 67 linked to N-terminus of amino acid residue 99-330 of SEQ ID NO.: 24) (human); assay: capture ELISA, biotin human CD40-Fc; mAb at 400 ng/mL
[3] = target: human CD40-Fc protein (amino acid residue 21-193 of SEQ ID NO: 67 linked to N-terminus of amino acid residue 99-330 of SEQ ID NO.: 24) (human); assay: capture ELISA, biotin human CD40-Fc; mAb at 10000 ng/mL
[4] = target: human CD40-Fc protein (amino acid residue 21-193 of SEQ ID NO: 67 linked to N-terminus of amino acid residue 99-330 of SEQ ID NO.: 24) (human); assay: capture ELISA, biotin human CD40-Fc; mAb at 0 ng/mL (blank)
[5] = target: human CD40-Fc protein (amino acid residue 21-193 of SEQ ID NO: 67 linked to N-terminus of amino acid residue 99-330 of SEQ ID NO.: 24) (human); assay: capture ELISA (antibody captured on coated anti-IgG F(ab')2, biotin-labeled human CD40-Fc in solution, streptavidin-HRP, OD(450-630))
[6] = target: human CD40-Fc protein (amino acid residue 21-193 of SEQ ID NO: 67 linked to N-terminus of amino acid residue 99-330 of SEQ ID NO.: 24) (human); assay: capture ELISA, biotin human CD40-Fc; mAb at 80 ng/mL
[7] = target: Human CD40-his protein (Acro biosystems, Cat # CD0-H5228) (human) (UniProt P25942); assay: SPR, Biacore; antibody captured, human CD40-his flowed
[8] = target: Human CD40-his protein (Acro biosystems, Cat # CD0-H5228) (human) (UniProt P25942); assay: SPR, Biacore; human CD40-his
[9] = target: full length human CD40 (uniprot # P25942-1) on the membrane of 293T-CD40 cells (human) (UniProt P25942); assay: cell-based or functional assay
[10] = target: Human CD40-his protein (Acro biosystems, Cat # CD0-H5228) (human) (UniProt P25942); assay: SPR, Biacore T200; antibody captured, antigen flowed; 1:1 Langmuir fit
[11] = target: human CD40-Fc protein (amino acid residue 21-193 of SEQ ID NO: 67 linked to N-terminus of amino acid residue 99-330 of SEQ ID NO.: 24) (human); assay: ligand blocking ELISA: human CD40-Fc coated, antibody titrated, then biotin-labeled human CD40L-his (blocked ligand), streptavidin-HRP, OD(450-630)
[12] = target: cynomolgus monkey CD40-his protein (Acro biosystems, Cat # CD0-052H6) (cynomolgus monkey) (UniProt G7PG38); assay: SPR, Biacore; cynomolgus CD40-his
[13] = target: human CD40-Fc protein (amino acid residue 21-193 of SEQ ID NO: 67 linked to N-terminus of amino acid residue 99-330 of SEQ ID NO.: 24) (human); assay: capture ELISA; antibody captured, biotin-labeled human CD40-Fc in solution
[14] = target: human CD40-Fc protein (amino acid residue 21-193 of SEQ ID NO: 67 linked to N-terminus of amino acid residue 99-330 of SEQ ID NO.: 24) (human); assay: as above; remark: listed apart in the source
[15] = target: human CD40-Fc protein (amino acid residue 21-193 of SEQ ID NO: 67 linked to N-terminus of amino acid residue 99-330 of SEQ ID NO.: 24) (human); assay: as above; remark: listed apart in the source
[16] = target: human CD40-Fc protein (amino acid residue 21-193 of SEQ ID NO: 67 linked to N-terminus of amino acid residue 99-330 of SEQ ID NO.: 24) (human); assay: capture ELISA, biotin human CD40-Fc; mAb at 0.64 ng/mL
[17] = target: human CD40-Fc protein (amino acid residue 21-193 of SEQ ID NO: 67 linked to N-terminus of amino acid residue 99-330 of SEQ ID NO.: 24) (human); assay: capture ELISA, biotin human CD40-Fc; mAb at 2000 ng/mL
[18] = target: human CD40-Fc protein (amino acid residue 21-193 of SEQ ID NO: 67 linked to N-terminus of amino acid residue 99-330 of SEQ ID NO.: 24) (human); assay: capture ELISA (antibody captured on coated goat anti-human IgG F(ab')2, biotin-labeled human CD40-Fc in solution, streptavidin-HRP, OD(450-630))
[19] = target: full length human CD40 (uniprot # P25942-1) on the membrane of 293T-CD40 cells (human) (UniProt P25942); assay: flow cytometry on 293T-CD40 cells, PE-labeled secondary antibody, MFI
[20] = target: full length human CD40 (uniprot # P25942-1) on the membrane of 293T-CD40 cells (human) (UniProt P25942); assay: as above; remark: listed apart in the source
[21] = target: human CD40-Fc protein (amino acid residue 21-193 of SEQ ID NO: 67 linked to N-terminus of amino acid residue 99-330 of SEQ ID NO.: 24) (human); assay: capture ELISA, biotin human CD40-Fc; mAb at 16 ng/mL
[22] = target: human CD40-Fc protein (amino acid residue 21-193 of SEQ ID NO: 67 linked to N-terminus of amino acid residue 99-330 of SEQ ID NO.: 24) (human); assay: capture ELISA; antibody captured, biotin-labeled human CD40-Fc in solution; remark: listed apart in the source
[23] = target: full length human CD40 (uniprot # P25942-1) on the membrane of 293T-CD40 cells (human) (UniProt P25942); assay: flow cytometry on 293T-CD40 cells; remark: listed apart in the source
[24] = target: human CD40-Fc protein (amino acid residue 21-193 of SEQ ID NO: 67 linked to N-terminus of amino acid residue 99-330 of SEQ ID NO.: 24) (human); assay: capture ELISA, biotin human CD40-Fc; mAb at 3.2 ng/mL
[25] = target: full length human CD40 (uniprot # P25942-1) on the membrane of 293T-CD40 cells (human) (UniProt P25942); assay: flow cytometry on 293T-CD40 cells, PE-labeled secondary antibody, MFI; remark: listed apart in the source
[26] = target: human CD40-Fc protein (amino acid residue 21-193 of SEQ ID NO: 67 linked to N-terminus of amino acid residue 99-330 of SEQ ID NO.: 24) (human); assay: capture ELISA (antibody captured on coated anti-IgG F(ab')2, biotin-labeled human CD40-Fc in solution, streptavidin-HRP, OD(450-630)); remark: listed apart in the source

Sequence of BM2 (Selicrelumab, Abgenix) (antibody) (VH): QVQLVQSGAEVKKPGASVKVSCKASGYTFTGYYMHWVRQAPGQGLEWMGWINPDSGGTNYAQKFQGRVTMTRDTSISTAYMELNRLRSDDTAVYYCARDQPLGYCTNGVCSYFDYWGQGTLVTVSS
Sequence of BM2 (Selicrelumab, Abgenix) (antibody) (VL): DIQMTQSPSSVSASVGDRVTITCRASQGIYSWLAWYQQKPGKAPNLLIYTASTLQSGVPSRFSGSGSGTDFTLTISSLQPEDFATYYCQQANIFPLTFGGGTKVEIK
Sequence of Human CD40-his protein (Acro biosystems, Cat # CD0-H5228) (human) (P25942 21-193 limits assumed): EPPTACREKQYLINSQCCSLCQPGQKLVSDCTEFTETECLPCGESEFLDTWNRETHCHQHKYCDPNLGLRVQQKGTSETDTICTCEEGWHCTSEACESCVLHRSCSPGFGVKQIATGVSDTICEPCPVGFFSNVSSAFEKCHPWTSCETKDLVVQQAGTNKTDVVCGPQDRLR
Sequence of full length human CD40 (uniprot # P25942-1) on the membrane of 293T-CD40 cells (human) (P25942 21-277 limits assumed): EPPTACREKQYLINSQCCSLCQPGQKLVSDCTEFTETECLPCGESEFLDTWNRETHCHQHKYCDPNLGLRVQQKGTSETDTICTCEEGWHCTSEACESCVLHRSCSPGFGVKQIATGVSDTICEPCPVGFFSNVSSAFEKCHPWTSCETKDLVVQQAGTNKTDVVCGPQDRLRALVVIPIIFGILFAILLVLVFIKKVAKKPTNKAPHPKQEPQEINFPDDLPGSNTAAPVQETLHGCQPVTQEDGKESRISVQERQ
Sequence of BM1 (Dacetuzumab, Genentech Inc) (antibody) (VH): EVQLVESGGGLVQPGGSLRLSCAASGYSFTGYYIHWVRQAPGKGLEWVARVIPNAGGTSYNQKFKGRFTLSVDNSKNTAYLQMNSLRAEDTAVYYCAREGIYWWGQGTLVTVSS
Sequence of BM1 (Dacetuzumab, Genentech Inc) (antibody) (VL): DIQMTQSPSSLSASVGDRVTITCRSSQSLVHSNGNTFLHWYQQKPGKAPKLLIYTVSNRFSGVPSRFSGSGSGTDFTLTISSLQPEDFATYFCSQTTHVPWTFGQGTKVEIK
Sequence of human CD40-Fc protein (amino acid residue 21-193 of SEQ ID NO: 67 linked to N-terminus of amino acid residue 99-330 of SEQ ID NO.: 24) (human) (chain, as listed by the source): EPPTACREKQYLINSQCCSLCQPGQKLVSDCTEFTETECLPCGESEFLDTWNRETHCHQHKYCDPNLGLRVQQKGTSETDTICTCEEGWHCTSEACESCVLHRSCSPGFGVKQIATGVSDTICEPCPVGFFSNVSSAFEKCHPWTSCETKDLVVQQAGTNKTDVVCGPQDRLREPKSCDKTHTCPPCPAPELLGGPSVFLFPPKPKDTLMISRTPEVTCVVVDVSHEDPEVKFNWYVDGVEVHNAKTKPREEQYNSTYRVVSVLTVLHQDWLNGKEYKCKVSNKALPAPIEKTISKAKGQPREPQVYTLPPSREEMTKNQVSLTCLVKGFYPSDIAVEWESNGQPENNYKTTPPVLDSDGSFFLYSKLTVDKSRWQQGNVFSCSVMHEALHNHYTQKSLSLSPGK
Sequence of cynomolgus monkey CD40-his protein (Acro biosystems, Cat # CD0-052H6) (cynomolgus monkey) (G7PG38 entry or part of it limits assumed): as the sequence (P25942 21-193 limits assumed) above, with G43S, H56R, R70Q, W89L, A95S, L101P, S106L, H142R, L172Q counted along it

| Substance | EC50 [1] | absorbance at 450 nm [2] | absorbance at 450 nm [3] | absorbance at 450 nm [4] | EC50 (read off the curve) [5] | absorbance at 450 nm [6] | Kd [7] | Kd [8] | Cell-based Reporter assay (EC50, nM) [9] | cell based functional assay (EC50, nM) [9] | Kd [10] | Kd [12] | EC50 [13] | EC50 [14] | EC50 [15] | absorbance at 450 nm [16] | absorbance at 450 nm [17] | EC50 (read off the curve) [18] | absorbance at 450 nm [21] | absorbance at 450 nm [24] | other results |
| --- | --- | --- | --- | --- | --- | --- | --- | --- | --- | --- | --- | --- | --- | --- | --- | --- | --- | --- | --- | --- | --- |
| BM1 (Dacetuzumab, Genentech Inc) (antibody) | 0.975 nM and 0.886 nM | 1.83 OD450 | 1.99 OD450 | 0.028 OD450 | 0.4 nM | 1.02 OD450 | 26.3 nM | 14.1 nM | 4.39 nM and 4.81 nM | 4.16 nM | 11.1 nM | 5.85 nM | 0.000501 µg/mL | 0.33 nM | 0.335 nM | 0.036 OD450 | 1.87 OD450 | 0.05 µg/mL | 0.291 OD450 | 0.077 OD450 | IC50 (read off the curve) [11]: 1 µg/mL; EC50 (read off the curve) [19]: 0.8 nM; EC50 (read off the curve) [20]: 0.2 µg/mL; EC50 [22]: 0.434 nM; EC50 [23]: 1.3 nM; EC50 (read off the curve) [25]: 1 nM |
| Mouse IgG-NC (mouse control Ab) (antibody) |  | 0.05 OD450 | 0.044 OD450 | 0.125 OD450 |  | 0.087 OD450 |  |  |  |  |  |  |  |  |  | 0.096 OD450 | 0.047 OD450 |  | 0.109 OD450 | 0.099 OD450 |  |
| hIgG (human immunoglobulin (pH4), for intravenous injection, Hualan Biological Engineering Inc.) (antibody) |  | 0.019 OD450 | 0.023 OD450 | 0.026 OD450 |  | 0.027 OD450 |  |  |  |  |  |  |  |  |  | 0.026 OD450 | 0.018 OD450 |  | 0.03 OD450 | 0.025 OD450 |  |
| BM2 (Selicrelumab, Abgenix) (antibody) | 2.01 nM and 8.58 nM | 1.42 OD450 | 1.85 OD450 | 0.029 OD450 | 1 nM | 0.669 OD450 | 15.4 nM | 12.2 nM | 7.01 nM and 4.9 nM | 2.89 nM | 5.12 nM | 6.03 nM | 0.000886 µg/mL | 0.72 nM | 0.716 nM | 0.028 OD450 | 1.63 OD450 | 0.1 µg/mL | 0.178 OD450 | 0.052 OD450 | EC50 (read off the curve) [26]: 0.1 µg/mL; EC50 (read off the curve) [20]: 0.3 µg/mL; EC50 [22]: 1.25 nM; EC50 [23]: 2.11 nM |
